Data taken from patent US20260015426A1.

Columns and labels:
Assay in all cases: ELISA, mAb at 10 nM
[1] = molecular target: hu-M-IL1RAP-D3 construct, positions K238-T367 (human)
[2] = molecular target: hu-M-IL1RAP-D1 construct, positions S21-Q133 (human)
[3] = molecular target: hu-M-IL1RAP-D1D2 construct, positions S21-P237 (human)
Sequence of hu-M-IL1RAP-D1D2 construct, positions S21-P237 (human) (chain, as listed by the source limits assumed): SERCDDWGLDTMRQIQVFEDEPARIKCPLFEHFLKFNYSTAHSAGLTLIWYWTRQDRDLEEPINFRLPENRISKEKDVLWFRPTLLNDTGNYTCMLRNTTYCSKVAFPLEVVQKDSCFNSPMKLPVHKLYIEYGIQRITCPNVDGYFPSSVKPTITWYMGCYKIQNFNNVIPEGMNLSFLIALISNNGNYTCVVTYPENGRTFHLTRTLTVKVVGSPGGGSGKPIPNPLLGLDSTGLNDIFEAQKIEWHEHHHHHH

Sequence of hu-M-IL1RAP-D1 construct, positions S21-Q133 (human) (chain, as listed by the source limits assumed): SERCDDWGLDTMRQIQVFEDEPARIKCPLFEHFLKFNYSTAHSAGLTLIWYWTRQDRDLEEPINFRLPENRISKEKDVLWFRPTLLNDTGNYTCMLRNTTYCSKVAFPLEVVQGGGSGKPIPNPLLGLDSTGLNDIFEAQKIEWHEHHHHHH
Sequence of hu-M-IL1RAP-D3 construct, positions K238-T367 (human) (chain, as listed by the source limits assumed): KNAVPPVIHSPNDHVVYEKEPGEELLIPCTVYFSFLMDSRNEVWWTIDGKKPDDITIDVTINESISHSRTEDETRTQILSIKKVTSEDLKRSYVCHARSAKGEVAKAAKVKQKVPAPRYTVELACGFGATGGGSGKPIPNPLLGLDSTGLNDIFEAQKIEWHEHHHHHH

Binder	A450 [1] [A450]	A450 [2] [A450]	A450 [3] [A450]
9D5 (purified mAb from hybridoma 9D5) (antibody, V domains shown) VH: QVQLQQSGAELARPGASVKFSCKASGYTFTSYWMQWVKQRPGQGLEWIGTIYPGDGNTRYTQKFKGKATLTADKSSSTAYMQLSGLASEDSAVYYCARGYFGNLVFDVWGAGTTVTVSS VL: DIKMTQSPSSMYASLGERVTITCKASQDINTYLSWFLQKPGKSPKTLIYRADRLVDGVPSRFSGGGSGQDYSLTISSLEYEDLGIYYCLQYDEFPYTFGSGTKLEIK	0.045	0.047	–
10A11 (purified mAb from hybridoma 10A11) (antibody, V domains shown) VH: EVQLQQSGAELVKPGASVRLSCTSSGFNIKDYFMHWVKQRTEQGLEWVGRIDPEDGETQYAPNFQDKATITVDTSSNTVYLQLSSLTSEDTAVYYCFRPLYYGNSPWFAYWGQGTLVTVSP VL: DIQMTQTTSSLSASLGDRVTISCRASQDISNYLNWYQQKPDGTVKLLIYYTSTLHSGVPSRFSGSGSGTDYSLTISNLEPEDIATYYCHQYSKFPPTFGSGTKLEIK	–	0.046	0.046

Further lines, results first:

A450 [1] [A450]	A450 [2] [A450]	A450 [3] [A450]	Binder
–	0.048	0.048	11C5(Hy) (purified mAb from the 11C5 hybridoma) (antibody, V domains shown) VH: EVQLVESGGGLVKPGGSLKLSCAASGFTFSNYAMSWVRQTPEKRLEWVATVTEGGDYNYCLDDVKGRFTISRDNANDNLYLQMSHLKSEDSARYYCARDRWPYFFDYWGQGTTLTVSS VL: DIQMTQSPASLSVSVGETVTITCRASENIYSNLAWYQQKQGRSPQLLVYGAKNLADGVPSRFSGSGSGTQYSLNINSLQSEDFGTYYCQHFWTTPRTFGGGTKLEIK
–	0.046	0.044	13D8 (purified mAb from hybridoma 13D8) (antibody, V domains shown) VH: EVQLVESGGGLVKPGGSLKLSCTASGFTFSNYAMSWVRQTPEKRLEWVATISDGGNYTYYPDNVKGRFTISRDIAKNNLYLQMSHLKSEDTAMYYCARDRWPYFFDFWGQGTTLTVSS VL: DIQMTQSPASLSVSVGETVTITCRASDNIYSNLAWYQEKQGKSPQLLVYGATNLADGVPSRFSGSGSGTQYSLKINSLQSEDFGSYYCQHFWTTPRSFGGGTKLELK
0.045	0.045	–	8H1 (purified mAb from hybridoma 8H1) (antibody, V domains shown) VH: QVQLQQSGPELVKSGASVRISCKASGYAFSGSWMNWVKQRPGKGLEWIGRIYPGDGNTNYNGKFKDKATLTADKSSSTAFMQLSSLTSEDSAVYFCARDYYLFYFDYWGQGTTLTVSS VL: NIVMTQTPKFLPVAAEDRVIITCKASQDVSNEVAWYQQKPGQSPKLLMYYASNRYTGVPDRFTGSGSGTDFTFTISSVQVEDLAVYFCQQHYSSPLTFGAGTKLELK
